The record followed here is patent publication US20240279290A1 (Molecular Partners, published 2024).

In the experiment the target is T1, cynomolgus serum albumin (cynomolgus).
T1 construct: also called CSA
The experiment is described as follows: SPR (ProteOn XPR36), Protein #5 captured on hFAP-coated GLC chip, CSA as analyte, 1:1 Langmuir fit. The protocol:
ProteOn setup for Protein #5 binding to serum albumin of different species. First, human FAP (hFAP) was coated on a GLC chip (BioRad) to a level of 700 RU before 50 nM Protein #5 was immobilized as analyle for 120 s (dissociation of 0 s) at constant flow of 100 μl/min to a level of 120 RU. The binding of the serum albumin to Protein #5 was measured by injecting human serum albumin (HSA), cynomolgus serum albumin (CSA) and mouse serum albumin (MSA) in a serial dilution of 100, 33, 11 and 3.7 nM with an association of 120 s and a dissociation of 600 s at a constant flow of 100 μl/min. HSA, CSA and MSA binding was measured serially and the hFAP/Protein #5 complex was regenerated each time with 10 mM glycine pH2 for 18 s at a flow of 100 μl/min. Thus, Protein #5 had to be re-immobilized on hFAP after each regeneration step. […] The kinetic was calculated on the first 300 s of dissociation.

T1 sequence (A2V9Z4 25-608): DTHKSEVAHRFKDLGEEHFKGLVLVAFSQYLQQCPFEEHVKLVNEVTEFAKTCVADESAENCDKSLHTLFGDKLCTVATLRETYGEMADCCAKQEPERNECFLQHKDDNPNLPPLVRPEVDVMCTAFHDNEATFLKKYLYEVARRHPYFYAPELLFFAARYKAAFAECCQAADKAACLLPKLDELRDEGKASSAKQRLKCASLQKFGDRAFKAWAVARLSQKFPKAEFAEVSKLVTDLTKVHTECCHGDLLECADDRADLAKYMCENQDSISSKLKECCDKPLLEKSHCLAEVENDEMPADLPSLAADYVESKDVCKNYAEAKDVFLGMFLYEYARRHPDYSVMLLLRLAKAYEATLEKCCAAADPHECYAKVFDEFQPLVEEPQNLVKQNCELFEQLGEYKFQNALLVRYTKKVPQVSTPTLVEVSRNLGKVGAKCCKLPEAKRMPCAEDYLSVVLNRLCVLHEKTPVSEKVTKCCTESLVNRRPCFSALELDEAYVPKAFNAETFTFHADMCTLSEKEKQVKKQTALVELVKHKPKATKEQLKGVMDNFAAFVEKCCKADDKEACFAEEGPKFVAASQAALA

B1: DARPin Protein #5 (designed binder)
chain: GSDLGKKLLEAARAGQDDEVRELLKAGADVNAKDYFSHTPLHLAARNGHLKIVEVLLKAGADVNAKDFAGKTPLHLAAADGHLEIVEVLLKAGADVNAQDIFGKTPADIAADAGHEDIAEVLQKAAGSPTPTPTTPTPTPTTPTPTPTGSDLGKKLLEAARAGQDDEVRILLAAGADVNAKDVLGWTPLHLAAFEGHLEIVEVLLKAGADVNAKDKKGWTPLQLAARTGHLEIVEVLLKAGADVNAKDHIGATPLHLAAWQGHPEIVEVLLKAGADVNAQDKSGKTPADLAADAGHEDIAEVLQKAAGSPTPTPTTPTPTPTTPTPTPTGSDLGKKLLQAARAGQLDEVRELLKAGADVNAKDTWGFTPLHIAAESGHLEIVEVLLKAGADVNAKDVQGRTPLHIAAHSGHLEIVEVLLKAGADVNAKDFRGWTPLHLAAWSGHLEIVEILLKAGADVNAQDKSGKTPADLAARAGHQDIAEVLQKAAGSPTPTPTTPTPTPTTPTPTPTGSDLGKKLLQAARAGQLDEVRELLKAGADVNAKDTWGFTPLHIAAESGHLEIVEVLLKAGADVNAKDVQGRTPLHIAAHSGHLEIVEVLLKAGADVNAKDFRGWTPLHLAAWSGHLEIVEILLKAGADVNAQDKSGKTPADLAARAGHQDIAEVLQKAA
notes: No tag is stated for this protein; also called SMA136; Molecule No. 1
As usually defined, the Kd is the concentration at which binding is half-saturated. As usually defined, the koff is the rate constant with which the complex falls apart. A word on the kon: it is the second-order rate constant of association. Take B1: the Kd came to 409 nM, the koff came to 0.217 s⁻¹ and the association rate constant (kon) is 532000 M⁻¹ s⁻¹.
